Test results from publication PMC5505701, “Somatostatin binds to the human amyloid β peptide and favors the formation of distinct oligomers” (eLife, 2017).

How the values were obtained:
[1] = system: oligomeric versus monomeric Aβ1-42 (Aβ1-42-biotin bait); experiment: Affinity capture interactome Experiment III (oAβ1-42-biotin vs mAβ1-42-biotin); settings: for Experiment III oAβ1-42-B/mAβ1-42-B Ratio: oligomeric versus monomeric bait, human frontal lobe digitonin extract, TMT, pH 8.0, 4°C overnight
[2] = system: oligomeric Aβ1-42 (oAβ1-42-biotin bait); experiment: Affinity capture interactome Experiment II (C-terminally tethered oAβ1-42-biotin vs biotin); settings: for Experiment II oAβ1-42-B/B Ratio: enrichment relative to biotin-only negative control, human frontal lobe digitonin extract, TMT, pH 8.0, 4°C overnight

Row | Molecule | Experiment III oAβ1-42-B/mAβ1-42-B Ratio [1] | Experiment II oAβ1-42-B/B Ratio [2] | further results
1 | 14-3-3 protein epsilon: human brain protein (protein, UniProt P62258 1-255, looked up) 14-3-3 protein epsilon: MDDREDLVYQAKLAEQAERYDEMVESMKKVAGMDVELTVEERNLLSVAYKNVIGARRASWRIISSIEQKEENKGGEDKLKMIREYRQMVETELKLICCDILDVLDKHLIPAANTGESKVFYYKMKGDYHRYLAEFATGNDRKEAAENSLVAYKAASDIAMTELPPTHPIRLGLALNFSVFYYEILNSPDRACRLAKAAFDDAIAELDTLSEESYKDSTLIMQLLRDNLTLWTSDMQGDGEEQNKEALQDVEDENQ |  |  | 128/131 ([1]; Experiment III, oAbeta 1-42 (TMT 128) versus mAbeta 1-42 (TMT 131), replicate channel 128): 1.113; 130/131 ([1]; Experiment III, oAbeta 1-42 (TMT 130) versus mAbeta 1-42 (TMT 131), replicate channel 130): 0.949; 126/131 ([2]; Experiment II, oAbeta 1-42-biotin (TMT 126) versus biotin (TMT 131), replicate channel 126): 1.157; 128/131 ([2]; Experiment II, oAbeta 1-42-biotin (TMT 128) versus biotin (TMT 131), replicate channel 128): 1.411; 130/131 ([2]; Experiment II, oAbeta 1-42-biotin (TMT 130) versus biotin (TMT 131), replicate channel 130): 1.195
2 | Peroxiredoxin-2: human brain protein (protein, UniProt P32119 2-198, looked up) Peroxiredoxin-2: ASGNARIGKPAPDFKATAVVDGAFKEVKLSDYKGKYVVLFFYPLDFTFVCPTEIIAFSNRAEDFRKLGCEVLGVSVDSQFTHLAWINTPRKEGGLGPLNIPLLADVTRRLSEDYGVLKTDEGIAYRGLFIIDGKGVLRQITVNDLPVGRSVDEALRLVQAFQYTDEHGEVCPAGWKPGSDTIKPNVDDSKEYFSKHN | 2.40 | 1.51 | 
3 | ATP synthase subunit alpha, mitochondrial: human brain protein (protein, UniProt P25705 44-553, looked up) ATP synthase F(1) complex …: QKTGTAEMSSILEERILGADTSVDLEETGRVLSIGDGIARVHGLRNVQAEEMVEFSSGLKGMSLNLEPDNVGVVVFGNDKLIKEGDIVKRTGAIVDVPVGEELLGRVVDALGNAIDGKGPIGSKTRRRVGLKAPGIIPRISVREPMQTGIKAVDSLVPIGRGQRELIIGDRQTGKTSIAIDTIINQKRFNDGSDEKKKLYCIYVAIGQKRSTVAQLVKRLTDADAMKYTIVVSATASDAAPLQYLAPYSGCSMGEYFRDNGKHALIIYDDLSKQAVAYRQMSLLLRRPPGREAYPGDVFYLHSRLLERAAKMNDAFGGGSLTALPVIETQAGDVSAYIPTNVISITDGQIFLETELFYKGIRPAINVGLSVSRVGSAAQTRAMKQVAGTMKLELAQYREVAAFAQFGSDLDAATQQLLSRGVRLTELLKQGQYSPMAIEEQVAVIYAGVRGYLDKLEPSKITKFENAFLSHVVSQHQALLGTIRADGKISEQSDAKLKEIVTNFLAGFEA | 4.88 | 2.16 | 
4 | Endophilin-A1: human brain protein (protein, UniProt Q99962 1-352, looked up) Endophilin-A1: MSVAGLKKQFHKATQKVSEKVGGAEGTKLDDDFKEMERKVDVTSRAVMEIMTKTIEYLQPNPASRAKLSMINTMSKIRGQEKGPGYPQAEALLAEAMLKFGRELGDDCNFGPALGEVGEAMRELSEVKDSLDIEVKQNFIDPLQNLHDKDLREIQHHLKKLEGRRLDFDYKKKRQGKIPDEELRQALEKFDESKEIAESSMFNLLEMDIEQVSQLSALVQAQLEYHKQAVQILQQVTVRLEERIRQASSQPRREYQPKPRMSLEFPTGDSTQPNGGLSHTGTPKPSGVQMDQPCCRALYDFEPENEGELGFKEGDIITLTNQIDENWYEGMLHGHSGFFPINYVEILVALPH | 1.07 | 1.28 | 
5 | Tubulin beta-3 chain: human brain protein (protein, UniProt Q13509 1-450, looked up) Tubulin beta-3 chain: MREIVHIQAGQCGNQIGAKFWEVISDEHGIDPSGNYVGDSDLQLERISVYYNEASSHKYVPRAILVDLEPGTMDSVRSGAFGHLFRPDNFIFGQSGAGNNWAKGHYTEGAELVDSVLDVVRKECENCDCLQGFQLTHSLGGGTGSGMGTLLISKVREEYPDRIMNTFSVVPSPKVSDTVVEPYNATLSIHQLVENTDETYCIDNEALYDICFRTLKLATPTYGDLNHLVSATMSGVTTSLRFPGQLNADLRKLAVNMVPFPRLHFFMPGFAPLTARGSQQYRALTVPELTQQMFDAKNMMAACDPRHGRYLTVATVFRGRMSMKEVDEQMLAIQSKNSSYFVEWIPNNVKVAVCDIPPRGLKMSSTFIGNSTAIQELFKRISEQFTAMFRRKAFLHWYTGEGMDEMEFTEAESNMNDLVSEYQQYQDATAEEEGEMYEDDEEESEAQGPK | 2.04 | 1.18 | 
6 | Peroxiredoxin-5, mitochondrial: human brain protein (protein, UniProt P30044 53-214, looked up) Peroxiredoxin-5, mitochondrial: MAPIKVGDAIPAVEVFEGEPGNKVNLAELFKGKKGVLFGVPGAFTPGCSKTHLPGFVEQAEALKAKGVQVVACLSVNDAFVTGEWGRAHKAEGKVRLLADPTGAFGKETDLLLDDSLVSIFGNRRLKRFSMVVQDGIVKALNVEPDGTGLTCSLAPNIISQL | 5.90 | 2.15 | 
7 | Heat shock protein, 60 kDa, mitochondrial: human brain protein (protein, UniProt P10809 27-573, looked up) 60 kDa heat shock protein, …: AKDVKFGADARALMLQGVDLLADAVAVTMGPKGRTVIIEQSWGSPKVTKDGVTVAKSIDLKDKYKNIGAKLVQDVANNTNEEAGDGTTTATVLARSIAKEGFEKISKGANPVEIRRGVMLAVDAVIAELKKQSKPVTTPEEIAQVATISANGDKEIGNIISDAMKKVGRKGVITVKDGKTLNDELEIIEGMKFDRGYISPYFINTSKGQKCEFQDAYVLLSEKKISSIQSIVPALEIANAHRKPLVIIAEDVDGEALSTLVLNRLKVGLQVVAVKAPGFGDNRKNQLKDMAIATGGAVFGEEGLTLNLEDVQPHDLGKVGEVIVTKDDAMLLKGKGDKAQIEKRIQEIIEQLDVTTSEYEKEKLNERLAKLSDGVAVLKVGGTSDVEVNEKKDRVTDALNATRAAVEEGIVLGGGCALLRCIPALDSLTPANEDQKIGIEIIKRTLKIPAMTIAKNAGVEGSLIVEKIMQSSSEVGYDAMAGDFVNMVEKGIIDPTKVVRTALLDAAGVASLLTTAEVVVTEIPKEEKDPGMGAMGGMGGGMGGGMF | 4.21 | 2.27 | 
8 | Cofilin-2: human brain protein (protein, UniProt Q9Y281 2-166, looked up) Cofilin-2: ASGVTVNDEVIKVFNDMKVRKSSTQEEIKKRKKAVLFCLSDDKRQIIVEEAKQILVGDIGDTVEDPYTSFVKLLPLNDCRYALYDATYETKESKKEDLVFIFWAPESAPLKSKMIYASSKDAIKKKFTGIKHEWQVNGLDDIKDRSTLGEKLGGNVVVSLEGKPL | 6.93 | 1.81 | 
9 | Acetyl-CoA acetyltransferase, mitochondrial: human brain protein (protein, UniProt P24752 34-427, looked up) Acetyl-CoA acetyltransferase, …: VSKPTLKEVVIVSATRTPIGSFLGSLSLLPATKLGSIAIQGAIEKAGIPKEEVKEAYMGNVLQGGEGQAPTRQAVLGAGLPISTPCTTINKVCASGMKAIMMASQSLMCGHQDVMVAGGMESMSNVPYVMNRGSTPYGGVKLEDLIVKDGLTDVYNKIHMGSCAENTAKKLNIARNEQDAYAINSYTRSKAAWEAGKFGNEVIPVTVTVKGQPDVVVKEDEEYKRVDFSKVPKLKTVFQKENGTVTAANASTLNDGAAALVLMTADAAKRLNVTPLARIVAFADAAVEPIDFPIAPVYAASMVLKDVGLKKEDIAMWEVNEAFSLVVLANIKMLEIDPQKVNINGGAVSLGHPIGMSGARIVGHLTHALKQGEYGLASICNGGGGASAMLIQKL | 2.45 | 2.64 | 
10 | Phosphoglycerate kinase 1: human brain protein (protein, UniProt P00558 2-417, looked up) Phosphoglycerate kinase 1: SLSNKLTLDKLDVKGKRVVMRVDFNVPMKNNQITNNQRIKAAVPSIKFCLDNGAKSVVLMSHLGRPDGVPMPDKYSLEPVAVELKSLLGKDVLFLKDCVGPEVEKACANPAAGSVILLENLRFHVEEEGKGKDASGNKVKAEPAKIEAFRASLSKLGDVYVNDAFGTAHRAHSSMVGVNLPQKAGGFLMKKELNYFAKALESPERPFLAILGGAKVADKIQLINNMLDKVNEMIIGGGMAFTFLKVLNNMEIGTSLFDEEGAKIVKDLMSKAEKNGVKITLPVDFVTADKFDENAKTGQATVASGIPAGWMGLDCGPESSKKYAEAVTRAKQIVWNGPVGVFEWEAFARGTKALMDEVVKATSRGCITIIGGGDTATCCAKWNTEDKVSHVSTGGGASLELLEGKVLPGVDALSNI | 1.73 | 1.38 | 
11 | Peroxiredoxin-6: human brain protein (protein, UniProt P30041 2-224, looked up) Peroxiredoxin-6: PGGLLLGDVAPNFEANTTVGRIRFHDFLGDSWGILFSHPRDFTPVCTTELGRAAKLAPEFAKRNVKLIALSIDSVEDHLAWSKDINAYNCEEPTEKLPFPIIDDRNRELAILLGMLDPAEKDEKGMPVTARVVFVFGPDKKLKLSILYPATTGRNFDEILRVVISLQLTAEKRVATPVDWKDGDSVMVLPTIPEEEAKKLFPKGVFTKELPSGKKYLRYTPQP | 1.54 | 1.42 | 
